# Patent publication US20240400685A1 (Genmab, published 2024)
# B1: epcoritamab CIEX-HPLC pre-acidic 1 fraction (bispecific antibody, human IgG1, kappa, lambda)
# heavy 1: not shown
# light 1: not shown
# heavy 2: EVQLVESGGGLVQPDRSLRLSCAASGFTFHDYAMHWVRQAPGKGLEWVSTISWNSGTIGYADSVKGRFTISRDNAKNSLYLQMNSLRAEDTALYYCAKDIQYGNYYYGMDVWGQGTTVTVSSASTKGPSVFPLAPSSKSTSGGTAALGCLVKDYFPEPVTVSWNSGALTSGVHTFPAVLQSSGLYSLSSVVTVPSSSLGTQTYICNVNHKPSNTKVDKRVEPKSCDKTHTCPPCPAPEFEGGPSVFLFPPKPKDTLMISRTPEVTCVVVAVSHEDPEVKFNWYVDGVEVHNAKTKPREEQYNSTYRVVSVLTVLHQDWLNGKEYKCKVSNKALPAPIEKTISKAKGQPREPQVYTLPPSREEMTKNQVSLTCLVKGFYPSDIAVEWESNGQPENNYKTTPPVLDSDGSFFLYSRLTVDKSRWQQGNVFSCSVMHEALHNHYTQKSLSLSPG
# light 2: not shown
# modifications: N103 deamidated (49.9 rel %); N106 deamidated (15.1 rel %); residual signal peptide SEA before N-terminal E1 (42.9 rel %); trace levels of a 3005a HC fragment around N103/N106
# B2: epcoritamab CIEX-HPLC acidic 1 fraction (bispecific antibody, human IgG1, kappa, lambda)
# heavy 1: not shown
# light 1: not shown
# heavy 2: B1 heavy 2
# light 2: not shown
# modifications: N103 deamidated (85.3 rel %); residual signal peptide SEA before N-terminal E1 (13.0 rel %)
# B3: epcoritamab CIEX-HPLC acidic 2a fraction (bispecific antibody, human IgG1, kappa, lambda)
# heavy 1: not shown
# light 1: not shown
# heavy 2: B1 heavy 2
# light 2: not shown
# modifications: N103 deamidated (29.6 rel %); N106 deamidated (22.6 rel %); non-consensus glycosylation A1F at N106 (15.0 rel %); residual signal peptide SEA before N-terminal E1 (26.9 rel %)
# B4: epcoritamab CIEX-HPLC acidic 2b fraction (bispecific antibody, human IgG1, kappa, lambda)
# heavy 1: not shown
# light 1: not shown
# heavy 2: B1 heavy 2
# light 2: not shown
# modifications: N106 deamidated (61.4 rel %); N103 deamidated (5.8 rel %); non-consensus glycosylation G2F (3.4 rel %) and A1F at N106; residual signal peptide SEA before N-terminal E1 (12.1 rel %)
# B5: epcoritamab CIEX-HPLC acidic 3 fraction (bispecific antibody, human IgG1, kappa, lambda)
# heavy 1: not shown
# light 1: not shown
# heavy 2: B1 heavy 2
# light 2: not shown
# modifications: N106 deamidated (76.0 rel %); trace levels of N103 deamidation
# Molecular target: human CD3 epsilon (human, UniProt P07766 23-207)
# Test: cell-based or functional assay
# Sequence of human CD3 epsilon (P07766 23-207): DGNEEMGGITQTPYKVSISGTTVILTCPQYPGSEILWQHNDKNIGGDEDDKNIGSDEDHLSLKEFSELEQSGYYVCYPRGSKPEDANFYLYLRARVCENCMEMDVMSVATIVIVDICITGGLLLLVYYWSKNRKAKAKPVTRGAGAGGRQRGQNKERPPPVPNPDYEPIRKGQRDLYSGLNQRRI
row,Binder,"Biological Activity (rel %), T-cell activation assay [rel %]"
1,B1,6
2,B2,9
3,B3,25
4,B4,28
5,B5,90
